ChEMBL document CHEMBL1145329, “Novel methylenephosphophosphonate analogues of mycophenolic adenine dinucleotide. Inhibition of inosine monophosphate dehydrogenase” (J Med Chem, 2006)

System: NC(=O)c1ccc[n+]([C@@H]2O[C@H](COP(=O)([O-])OP(=O)(O)OC[C@H]3O[C@@H](n4cnc5c(N)ncnc54)[C@H](O)[C@@H]3O)[C@@H](O)[C@H]2O)c1
Assay: Inhibition of human IMPDH
Assay type: protein assay

With “Inosine-5'-monophosphate dehydrogenase (IMPDH) (Homo sapiens) (from UniProt P20839+P12268)” the Km was 100 µM.
